# Experimental data as given in patent publication US20220002418A1 (HUABO BIOPHARM SHANGHAI, published 2022).
# T1: Soybean trypsin inhibitor 1-S type (Sigma, T-2327) (soybean, UniProt P01070 25-205)
# T1 construct: Non-target molecule, amine-coupled to the CM5 chip
# T1 sequence (looked up): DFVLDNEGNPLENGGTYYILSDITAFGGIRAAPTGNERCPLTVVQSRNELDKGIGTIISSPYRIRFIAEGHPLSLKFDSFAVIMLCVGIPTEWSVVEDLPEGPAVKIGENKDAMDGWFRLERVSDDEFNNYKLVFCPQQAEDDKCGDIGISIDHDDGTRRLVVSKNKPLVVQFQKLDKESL
# How the values were obtained:
# [1] = biological target: T2, Recombinant human PD-L1 (Sino Biological, 10084-H08H) (human, UniProt Q9NZQ7 19-239); assay: SPR (Biacore 8K), antibody captured on anti-human capture CM5 chip, antigen as analyte, 1:1 model
# T2 construct: Bought reagent
# Protocol: (§1) Methods: Anti-Human Capture-CM5 chip was prepared according to the amino coupling method of the Human Antibody Capture Kit. The chip was balanced at room temperature for 20-30 min, and then loaded into Biacore 8K instrument. The transient transduced protein was diluted to experimental working concentration with equilibration buffer. The antigen was diluted to 50 nM with equilibration buffer, and then diluted to seven concentration gradients with a 3-fold dilution, and two zero concentrations (equilibration buffer) and one repeat concentration (usually a repeat of the lowest concentration) were set. According to the order of antibody, antigen, and regeneration, cyclical experimental analysis were performed on 10 antigen concentrations (2 zero concentrations, 7 gradient concentrations and 1 repeat concentration), wherein the antigen injection flow rate was 30 μL/min, binding time was 120 seconds, and dissociation time was 600 seconds. After the analysis was completed, the corresponding analysis program was selected to analyze the data, confirming that there was no obvious reference binding. Kinetics, 1:1 binding modle was selected to fit the data, and the kinetic related parameters Ka, Kd and KD values of human-mouse chimeric antibody and humanized antibody were obtained.
# [2] = biological target: T3, Recombinant human VEGF165 (Sino Biological, 11066-HNAH) (human, UniProt P15692-4 27-191); assay: as above
# T3 construct: Bought reagent
# Protocol: as §1
# [3] = biological target: T2, Recombinant human PD-L1 (Sino …); assay: SPR (Biacore 8K), same method as Example 2
# Protocol: as §1
# [4] = biological target: T3, Recombinant human VEGF165 (Sino …); assay: SPR (Biacore 8K), same method as Example 2
# Protocol: as §1
# [5] = biological target: T4, Egg white lysozyme (Sigma, L3790) (UniProt P00698 19-147); assay: SPR (Biacore 8K), same method as Example 3, lysozyme on CM5 chip
# T4 construct: Non-target molecule, amine-coupled to the CM5 chip
# Protocol: (§2) Methods: Series S Sensor Chip CM5 was balanced at room temperature for 20-30 min, and loaded into Biacore 8K instrument. Egg white lysozyme and soybean trypsin inhibitor 1-S type were fixed to the CM5 chip, respectively, using the Amino Coupling Kit. The injection buffer was HBS-EP+1×. 4 balance cycles were setted. The rabbit polyclonal antibody against lysozyme, the antibody against trypsin inhibitor, and the humanized monoclonal antibody were diluted to 1000 nM with equilibration buffer, and the flow rate was set as 5 μL/min, and the injection channels were 1, 2 and 3. The Flow Cells were 1 and 2. The binding time was 10 min, and the dissociation time was 15 min. The regeneration flow rate was 50 μl/min, which is regenerated first with 0.85% phosphoric acid for 60 s, and then with 50 mM sodium hydroxide for 30 s. The results of non-specific adsorption of bispecific antibody HB0025 and non-target molecules are shown in Table 3, and the sensor diagram of the detection of non-specific adsorption of bispecific antibody and non-target molecules is shown in FIG. 3.
# [6] = biological target: T1, Soybean trypsin inhibitor 1-S type …; assay: SPR (Biacore 8K), same method as Example 3, soybean trypsin inhibitor on CM5 chip
# Protocol: as §2
# T3 sequence (P15692 other isoform, or with tags, fused parts or gaps): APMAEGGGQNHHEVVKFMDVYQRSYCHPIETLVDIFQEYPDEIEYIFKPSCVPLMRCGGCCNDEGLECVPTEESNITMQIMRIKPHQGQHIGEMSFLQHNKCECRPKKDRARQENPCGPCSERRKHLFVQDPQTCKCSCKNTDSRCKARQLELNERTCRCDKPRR
# T2 sequence (Q9NZQ7 19-239 limits assumed): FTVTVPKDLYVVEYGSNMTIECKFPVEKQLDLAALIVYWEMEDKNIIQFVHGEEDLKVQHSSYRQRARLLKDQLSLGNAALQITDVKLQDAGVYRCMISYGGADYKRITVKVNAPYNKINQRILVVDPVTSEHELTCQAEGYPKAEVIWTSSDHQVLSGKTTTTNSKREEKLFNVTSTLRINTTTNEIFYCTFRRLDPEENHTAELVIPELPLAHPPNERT
# T4 sequence (P00698 19-147 limits assumed): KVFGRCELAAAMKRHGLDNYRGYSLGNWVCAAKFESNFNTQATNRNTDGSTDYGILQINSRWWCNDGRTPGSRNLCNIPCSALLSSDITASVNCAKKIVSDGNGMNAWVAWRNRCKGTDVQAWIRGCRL
Kd [1],koff [1],kon [1],Kd [2],koff [2],kon [2],Kd [3],koff [3],kon [3],Kd [4],koff [4],kon [4],binding result [5],binding result [6],Binder
0.844 nM,0.000402 s⁻¹,476000 M⁻¹ s⁻¹,0.0295 nM,0.00028 s⁻¹,9.5e+06 M⁻¹ s⁻¹,,,,,,,,,"bispecific antibody HB0025 (bifunctional antibody 900387) (bispecific antibody, human IgG1, kappa, L234A L235A, symmetrical molecule with two H and two L chains; also called HB0025-22A3/9E3-ProA-EP; HB0025-22F5/4E6-ProA-EP) heavy: not shown light: DVVMTQTPLSLSVTPGQPASISCKSSQSLANSYGNTYLSWYLHKPGQSPQLLIYGISNRFSGVPDRFSGSGSGTDFTLKISRVEAEDVGVYYCLQGTHQPPTFGQGTKLEIKRTVAAPSVFIFPPSDEQLKSGTASVVCLLNNFYPREAKVQWKVDNALQSGNSQESVTEQDSKDSTYSLSSTLTLSKADYEKHKVYACEVTHQGLSSPVTKSFNRGEC"
,,,,,,0.824 nM,0.000522 s⁻¹,633000 M⁻¹ s⁻¹,0.0398 nM,0.00041 s⁻¹,1.03e+07 M⁻¹ s⁻¹,no binding,no binding,"bispecific antibody 900388 (bispecific antibody, human IgG1, kappa, L234A L235A) heavy: not shown light: DVVMTQTPLSLSVTPGQPASISCKSSQSLANSYGNTYLSWYLHKPGQSPQLLIYGISNRFSGVPDRFSGSGSGTDFTLKISRVEAEDVGVYYCLQGTHQPPTFGQGTKLEIKRTVAAPSVFIFPPSDEQLKSGTASVVCLLNNFYPREAKVQWKVDNALQSGNSQESVTEQDSKDSTYSLSSTLTLSKADYEKHKVYACEVTHQGLSSPVTKSFNRGEC"
